Assay [1] deals with T1, Recombinant human MIF, immobilized (transforming MIF to oxMIF) (human, UniProt P14174 2-115).
T1 construct: also called immobilized MIF (oxMIF); HuMIF
In words: ELISA, immobilized recombinant human MIF (oxMIF), protein L-HRP detection, 4-parameter fit. Here is the method:
Recombinant human MIF (1 μg/ml) diluted in PBS was immobilized into microwell plates (transforming MIF to oxMIF according to Thiele M. et al., 2015, J Immunol 2015; 195:2343-2352). After blocking, the bispecific antibodies were added to the plates at different concentrations. Bound bispecific antibodies were detected using protein L-HRP conjugate. Plates were developed by adding TMB and chromogenic reaction was stopped with H₂SO₄. OD was measured at 450 nm.
EC50 values of the binding curves, which reflect rough KD estimates, were calculated by 4-parameter fit and are shown in Table 5.
For orientation: An ELISA detects its analyte on a solid surface through an enzyme-linked reagent.

For assay [2], the target named is T1, Recombinant human MIF, immobilized …. As to the kind of experiment: SPR, Biacore T200, HuMIF immobilized on CM5 chip, single cycle kinetics, 1:1 Langmuir model. Here is the method:
The affinity of the antibodies was determined using a Biacore™ T200 device. HuMIF was immobilized onto CM5 sensor chips and anti-oxMIF bispecific entities were injected at different concentrations in running buffer (HBS-EP plus 0.1% BSA) to generate single cycle kinetic profiles.
A general note: In SPR one partner is held on a chip, and binding of the other changes the refractive index at the surface.

Assay [3] has as its target T2, native CD3 on CD3-positive Jurkat T cells (UniProt P07766 23-207; P04234 22-171; P09693 23-182).
T2 construct: whole, on cells; also called functional CD3 (CD3+)
In words: flow cytometry on viable CD3+ Jurkat T cells, antibody at 70 nM, goat anti-human IgG (H+L) Alexa Fluor 488. Here is the method:
CD3 positive Jurkat T-cells, which express functional CD3 (CD3+) were incubated with bispecific antibodies, C0008 (anti-oxMIF monospecific control antibody), a non-specific isotype control antibody (Isotype) at a concentration of 70 nM or without antibody (secondary ab only). Bound antibodies were detected by a goat anti-human IgG (H+L) Alexa-Fluor 488 conjugate (secondary antibody). 7AAD was used to label dead cells and samples were analysed by FACS.
On the technique in general: Flow cytometry measures light scatter and fluorescence of single cells or particles in a stream.

T1 sequence (P14174 2-115 limits assumed): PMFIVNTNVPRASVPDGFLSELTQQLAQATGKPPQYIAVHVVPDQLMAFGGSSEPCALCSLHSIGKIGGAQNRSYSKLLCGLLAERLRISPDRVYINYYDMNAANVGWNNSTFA
T2 sequence (P07766 23-207, chain 1 of 3): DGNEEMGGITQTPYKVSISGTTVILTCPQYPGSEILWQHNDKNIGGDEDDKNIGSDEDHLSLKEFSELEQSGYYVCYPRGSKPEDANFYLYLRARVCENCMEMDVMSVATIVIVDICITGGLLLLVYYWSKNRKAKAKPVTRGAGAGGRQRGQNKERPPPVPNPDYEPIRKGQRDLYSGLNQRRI
T2 sequence (P04234 22-171, chain 2 of 3): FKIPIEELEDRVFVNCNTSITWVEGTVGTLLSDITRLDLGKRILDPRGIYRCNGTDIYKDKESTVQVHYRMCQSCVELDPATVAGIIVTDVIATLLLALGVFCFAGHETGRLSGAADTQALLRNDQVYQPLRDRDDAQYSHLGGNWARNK
T2 sequence (P09693 23-182, chain 3 of 3): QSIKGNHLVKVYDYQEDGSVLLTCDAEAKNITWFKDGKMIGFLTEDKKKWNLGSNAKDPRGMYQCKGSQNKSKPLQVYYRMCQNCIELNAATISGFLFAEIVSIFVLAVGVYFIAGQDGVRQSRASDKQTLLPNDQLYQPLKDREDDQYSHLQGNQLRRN

B1: C0006 (Anti-oxMIF/CD3 Crossmab (CH1-CL), Crossmab) (bispecific antibody, human IgG1, kappa)
light 1: DIQMTQSPSSLSASVGDRVTITCRSSQRIMTYLNWYQQKPGKAPKLLIFVASHSQSGVPSRFRGSGSETDFTLTISGLQPEDSATYYCQQSFWTPLTFGGGTKVEIKRTVAAPSVFIFPPSDEQLKSGTASVVCLLNNFYPREAKVQWKVDNALQSGNSQESVTEQDSKDSTYSLSSTLTLSKADYEKHKVYACEVTHQGLSSPVTKSFNRGEC
heavy 1: not shown
heavy 2: not shown
light 2: DIQMTQSPSSLSASVGDRVTITCSASSSVSYMNWYQQKPGKAPKRLIYDTSKLASGVPSRFSGSGSGTDFTLTISSLQPEDFATYYCQQWSSNPFTFGQGTKLEIKSSASTKGPSVFPLAPSSKSTSGGTAALGCLVKDYFPEPVTVSWNSGALTSGVHTFPAVLQSSGLYSLSSVVTVPSSSLGTQTYICNVNHKPSNTKVDKKVEPKSC
As a reminder, the EC50 is the concentration giving half of the maximal effect. One may read the Kd as the free concentration of one partner at which half of the binding sites on the other are occupied at equilibrium, for simple one-to-one binding. As for B1, the EC50 in assay [1] amounted to 4.6 nM. Further, the Kd in assay [2] was 7.2 nM. The binding result in assay [3] is reported as “binds”.

B2: C0038 (Anti-oxMIF Fab and anti-CD3 scFv fused to Fc, Fab-scFv-Fc) (bispecific antibody, human IgG1, kappa)
light: DIQMTQSPSSLSASVGDRVTITCRSSQRIMTYLNWYQQKPGKAPKLLIFVASHSQSGVPSRFRGSGSETDFTLTISGLQPEDSATYYCQQSFWTPLTFGGGTKVEIKRTVAAPSVFIFPPSDEQLKSGTASVVCLLNNFYPREAKVQWKVDNALQSGNSQESVTEQDSKDSTYSLSSTLTLSKADYEKHKVYACEVTHQGLSSPVTKSFNRGEC
heavy: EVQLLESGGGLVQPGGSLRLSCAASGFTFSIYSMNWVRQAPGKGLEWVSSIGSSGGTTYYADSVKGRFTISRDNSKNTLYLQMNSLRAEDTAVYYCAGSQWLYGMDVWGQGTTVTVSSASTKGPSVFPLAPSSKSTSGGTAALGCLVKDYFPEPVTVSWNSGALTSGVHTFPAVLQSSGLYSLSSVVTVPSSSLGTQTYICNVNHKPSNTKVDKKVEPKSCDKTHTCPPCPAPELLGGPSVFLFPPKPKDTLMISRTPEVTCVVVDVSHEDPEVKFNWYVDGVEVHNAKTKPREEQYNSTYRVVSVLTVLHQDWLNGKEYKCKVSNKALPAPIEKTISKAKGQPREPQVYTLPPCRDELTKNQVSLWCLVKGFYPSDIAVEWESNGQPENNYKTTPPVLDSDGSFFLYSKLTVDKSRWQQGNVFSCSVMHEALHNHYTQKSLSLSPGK
chain: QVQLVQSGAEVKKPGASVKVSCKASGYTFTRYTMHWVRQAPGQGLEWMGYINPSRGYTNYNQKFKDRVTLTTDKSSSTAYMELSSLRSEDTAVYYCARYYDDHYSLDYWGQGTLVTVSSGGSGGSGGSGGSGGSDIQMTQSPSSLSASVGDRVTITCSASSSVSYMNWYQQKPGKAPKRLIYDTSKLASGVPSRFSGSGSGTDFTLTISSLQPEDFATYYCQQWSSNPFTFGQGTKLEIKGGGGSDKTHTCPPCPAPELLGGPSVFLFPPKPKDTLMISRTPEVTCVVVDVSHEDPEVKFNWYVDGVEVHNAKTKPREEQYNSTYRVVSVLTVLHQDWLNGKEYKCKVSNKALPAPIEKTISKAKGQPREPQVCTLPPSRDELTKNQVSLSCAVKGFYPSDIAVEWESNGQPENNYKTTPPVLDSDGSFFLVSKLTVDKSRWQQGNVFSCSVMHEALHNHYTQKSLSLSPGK
Consider B2, for which the EC50 in assay [1] was 4.6 nM. Besides, the Kd in assay [2] was found to be 9.4 nM.

B3: C0036 (Anti-oxMIF Fab fused to anti-CD3 scFv (HC); format: Fab-scFv) (bispecific antibody)
heavy: EVQLLESGGGLVQPGGSLRLSCAASGFTFSIYSMNWVRQAPGKGLEWVSSIGSSGGTTYYADSVKGRFTISRDNSKNTLYLQMNSLRAEDTAVYYCAGSQWLYGMDVWGQGTTVTVSSASTKGPSVFPLAPSSKSTSGGTAALGCLVKDYFPEPVTVSWNSGALTSGVHTFPAVLQSSGLYSLSSVVTVPSSSLGTQTYICNVNHKPSNTKVDKRVEPKSCGGGGSGGGGSGGGGSQVQLVQSGAEVKKPGASVKVSCKASGYTFTRYTMHWVRQAPGQGLEWMGYINPSRGYTNYNQKFKDRVTLTTDKSSSTAYMELSSLRSEDTAVYYCARYYDDHYSLDYWGQGTLVTVSSGGSGGSGGSGGSGGSDIQMTQSPSSLSASVGDRVTITCSASSSVSYMNWYQQKPGKAPKRLIYDTSKLASGVPSRFSGSGSGTDFTLTISSLQPEDFATYYCQQWSSNPFTFGQGTKLEIKAAAEQKLISEEDLAAHHHHHH
light: DIQMTQSPSSLSASVGDRVTITCRSSQRIMTYLNWYQQKPGKAPKLLIFVASHSQSGVPSRFRGSGSETDFTLTISGLQPEDSATYYCQQSFWTPLTFGGGTKVEIKRTVAAPSVFIFPPSDEQLKSGTASVVCLLNNFYPREAKVQWKVDNALQSGNSQESVTEQDSKDSTYSLSSTLTLSKADYEKHKVYACEVTHQGLSSPVTKSFNRGEC
Turning to B3, in assay [1], the EC50 came out at 2.3 nM. In addition, the Kd in assay [2] was 2.3 nM.

B4: C0007 (Full anti-oxMIF IgG with anti-CD3 scFv fused to heavy chain, v IgG1-scFv fusion) (bispecific antibody)
heavy: not shown
light: DIQMTQSPSSLSASVGDRVTITCRSSQRIMTYLNWYQQKPGKAPKLLIFVASHSQSGVPSRFRGSGSETDFTLTISGLQPEDSATYYCQQSFWTPLTFGGGTKVEIKRTVAAPSVFIFPPSDEQLKSGTASVVCLLNNFYPREAKVQWKVDNALQSGNSQESVTEQDSKDSTYSLSSTLTLSKADYEKHKVYACEVTHQGLSSPVTKSFNRGEC
As for B4, the EC50 in assay [1] was determined as 0.3 nM. The Kd in assay [2] came to 0.61 nM. Further, in assay [3], the binding result is “binds”.

B5: C0037 (Anti-oxMIF Fab fused to two anti-CD3 scFv, format: Fab-(scFv)2) (bispecific antibody)
heavy: EVQLLESGGGLVQPGGSLRLSCAASGFTFSIYSMNWVRQAPGKGLEWVSSIGSSGGTTYYADSVKGRFTISRDNSKNTLYLQMNSLRAEDTAVYYCAGSQWLYGMDVWGQGTTVTVSSASTKGPSVFPLAPSSKSTSGGTAALGCLVKDYFPEPVTVSWNSGALTSGVHTFPAVLQSSGLYSLSSVVTVPSSSLGTQTYICNVNHKPSNTKVDKRVEPKSCGGGGSGGGGSGGGGSQVQLVQSGAEVKKPGASVKVSCKASGYTFTRYTMHWVRQAPGQGLEWMGYINPSRGYTNYNQKFKDRVTLTTDKSSSTAYMELSSLRSEDTAVYYCARYYDDHYSLDYWGQGTLVTVSSGGSGGSGGSGGSGGSDIQMTQSPSSLSASVGDRVTITCSASSSVSYMNWYQQKPGKAPKRLIYDTSKLASGVPSRFSGSGSGTDFTLTISSLQPEDFATYYCQQWSSNPFTFGQGTKLEIKAAAEQKLISEEDLAAHHHHHH
light: DIQMTQSPSSLSASVGDRVTITCRSSQRIMTYLNWYQQKPGKAPKLLIFVASHSQSGVPSRFRGSGSETDFTLTISGLQPEDSATYYCQQSFWTPLTFGGGTKVEIKRTVAAPSVFIFPPSDEQLKSGTASVVCLLNNFYPREAKVQWKVDNALQSGNSQESVTEQDSKDSTYSLSSTLTLSKADYEKHKVYACEVTHQGLSSPVTKSFNRGECGGGSGGGSGGGSQVQLVQSGAEVKKPGASVKVSCKASGYTFTRYTMHWVRQAPGQGLEWMGYINPSRGYTNYNQKFKDRVTLTTDKSSSTAYMELSSLRSEDTAVYYCARYYDDHYSLDYWGQGTLVTVSSGGSGGSGGSGGSGGSDIQMTQSPSSLSASVGDRVTITCSASSSVSYMNWYQQKPGKAPKRLIYDTSKLASGVPSRFSGSGSGTDFTLTISSLQPEDFATYYCQQWSSNPFTFGQGTKLEIKASAWSHPQFEK
For the molecule B5, in assay [1], the EC50 is 3.4 nM. In addition, in assay [2], the Kd was found to be 5.9 nM.

B6: C0033 (Variable domains of anti-oxMIF and anti-CD3 fused in a row (VL1-VH2-VL2-VH1, TandAb)) (bispecific antibody)
chain: DIQMTQSPSSLSASVGDRVTITCSASSSVSYMNWYQQKPGKAPKRLIYDTSKLASGVPSRFSGSGSGTDFTLTISSLQPEDFATYYCQQWSSNPFTFGQGTKLEIKGGSGGSEVQLLESGGGLVQPGGSLRLSCAASGFTFSIYSMNWVRQAPGKGLEWVSSIGSSGGTTYYADSVKGRFTISRDNSKNTLYLQMNSLRAEDTAVYYCAGSQWLYGMDVWGQGTTVTVSSGGSGGSDIQMTQSPSSLSASVGDRVTITCRSSQRIMTYLNWYQQKPGKAPKLLIFVASHSQSGVPSRFRGSGSETDFTLTISGLQPEDSATYYCQQSFWTPLTFGGGTKVEIKGGSGGSQVQLVQSGAEVKKPGASVKVSCKASGYTFTRYTMHWVRQAPGQGLEWMGYINPSRGYTNYNQKFKDRVTLTTDKSSSTAYMELSSLRSEDTAVYYCARYYDDHYSLDYWGQGTLVTVSSAAAEQKLISEEDLSAWSHPQFEK
Regarding B6, the EC50 in assay [1] was 1.9 nM. The dissociation constant Kd in assay [2] worked out at 4.8 nM.

B7: C0032 (Anti-oxMIF-scFv fused to an anti-CD3-scFv, BiTE) (bispecific antibody)
chain: DIQMTQSPSSLSASVGDRVTITCRSSQRIMTYLNWYQQKPGKAPKLLIFVASHSQSGVPSRFRGSGSETDFTLTISGLQPEDSATYYCQQSFWTPLTFGGGTKVEIKGGGGSGGGGSGGGGSEVQLLESGGGLVQPGGSLRLSCAASGFTFSIYSMNWVRQAPGKGLEWVSSIGSSGGTTYYADSVKGRFTISRDNSKNTLYLQMNSLRAEDTAVYYCAGSQWLYGMDVWGQGTTVTVSSGGGGSQVQLVQSGAEVKKPGASVKVSCKASGYTFTRYTMHWVRQAPGQGLEWMGYINPSRGYTNYNQKFKDRVTLTTDKSSSTAYMELSSLRSEDTAVYYCARYYDDHYSLDYWGQGTLVTVSSGGSGGSGGSGGSGGSDIQMTQSPSSLSASVGDRVTITCSASSSVSYMNWYQQKPGKAPKRLIYDTSKLASGVPSRFSGSGSGTDFTLTISSLQPEDFATYYCQQWSSNPFTFGQGTKLEIKAAAEQKLISEEDLSAWSHPQFEK
notes: also called anti-oxMIF/CD3 BiTE
For B7, the EC50 in assay [1] was 4 nM. In assay [2], the equilibrium dissociation constant (Kd) was 4.3 nM. In addition, in assay [3], the binding result was “binds”.

B8: C0008 (full anti-oxMIF IgG, IgG1) (antibody, V domains shown)
VH: EVQLLESGGGLVQPGGSLRLSCAASGFTFSIYSMNWVRQAPGKGLEWVSSIGSSGGTTYYADSVKGRFTISRDNSKNTLYLQMNSLRAEDTAVYYCAGSQWLYGMDVWGQGTTVTVSS
VL: DIQMTQSPSSLSASVGDRVTITCRSSQRIMTYLNWYQQKPGKAPKLLIFVASHSQSGVPSRFRGSGSETDFTLTISGLQPEDSATYYCQQSFWTPLTFGGGTKVEIKR
notes: Monospecific control antibody; also called anti-oxMIF monospecific control antibody
For B8, in assay [3], the binding result is “no binding (tested: 70 nM)”.

B9: C0039 (Full anti-oxMIF IgG with anti-CD3 scFv fused to light chain, IgG(lc)-scFv) (bispecific antibody)
heavy: not shown
light: DIQMTQSPSSLSASVGDRVTITCRSSQRIMTYLNWYQQKPGKAPKLLIFVASHSQSGVPSRFRGSGSETDFTLTISGLQPEDSATYYCQQSFWTPLTFGGGTKVEIKRTVAAPSVFIFPPSDEQLKSGTASVVCLLNNFYPREAKVQWKVDNALQSGNSQESVTEQDSKDSTYSLSSTLTLSKADYEKHKVYACEVTHQGLSSPVTKSFNRGECGGGGSGGGGSGGGGSQVQLVQSGAEVKKPGASVKVSCKASGYTFTRYTMHWVRQAPGQGLEWMGYINPSRGYTNYNQKFKDRVTLTTDKSSSTAYMELSSLRSEDTAVYYCARYYDDHYSLDYWGQGTLVTVSSGGSGGSGGSGGSGGSDIQMTQSPSSLSASVGDRVTITCSASSSVSYMNWYQQKPGKAPKRLIYDTSKLASGVPSRFSGSGSGTDFTLTISSLQPEDFATYYCQQWSSNPFTFGQGTKLEIK
notes: also called IgG(Ic)-scFv
With B9, the EC50 in assay [1] came out at 0.3 nM. In assay [2], the Kd amounted to 1 nM. Besides, the binding result in assay [3] is listed as “binds”.

The record behind these values is patent US20220002398A1 (ONCOONE RESEARCH AND DEVELOPMENT, published 2022).
